According to PMC2290880 (The Journal of Cell Biology, 1993):

Molecular target: T1, Sec63p (Saccharomyces cerevisiae (endogenous in …, UniProt P14906 1-663))
T1 sequence (looked up): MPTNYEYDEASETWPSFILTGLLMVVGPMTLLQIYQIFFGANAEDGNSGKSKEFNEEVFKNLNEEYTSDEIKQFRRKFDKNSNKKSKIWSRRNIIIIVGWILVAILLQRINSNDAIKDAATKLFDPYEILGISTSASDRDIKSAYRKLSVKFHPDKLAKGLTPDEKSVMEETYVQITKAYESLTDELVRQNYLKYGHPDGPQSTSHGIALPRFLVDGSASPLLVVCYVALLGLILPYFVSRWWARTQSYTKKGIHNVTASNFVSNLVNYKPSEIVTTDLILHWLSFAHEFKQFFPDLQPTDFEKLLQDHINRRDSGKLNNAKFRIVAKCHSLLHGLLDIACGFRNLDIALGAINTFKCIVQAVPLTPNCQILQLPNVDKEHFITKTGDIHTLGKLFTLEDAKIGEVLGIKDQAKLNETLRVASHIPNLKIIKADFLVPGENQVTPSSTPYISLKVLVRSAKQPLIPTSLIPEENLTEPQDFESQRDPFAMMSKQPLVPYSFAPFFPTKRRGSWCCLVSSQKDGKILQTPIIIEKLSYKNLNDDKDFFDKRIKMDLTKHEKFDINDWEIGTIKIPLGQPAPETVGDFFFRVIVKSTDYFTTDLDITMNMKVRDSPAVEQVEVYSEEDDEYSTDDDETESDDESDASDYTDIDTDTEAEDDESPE
Experiment: co-elution on hydroxylapatite chromatography

stoichiometry N: 1.4 Sec63p per BiP
B1: BiP/Kar2p (natural protein)
chain: not shown
